“And” between values parts separate entries of the source, which are not always exact repeats. Equal values may be shown once.
Assays:
[1] = Effect of mixed organo-solvents on LccA stability, residual SGZ oxidizing activity; type: physicochemical; details: 185 mM NaCl
Protocol: (§1) FIG. 6D-Thermostability of LccA.
Commonly used water miscible organo-solvents (i.e., methanol, ethanol, dimethyl sulfoxide or DMSO and dimethylformamide or DMF) were examined for their compatibility with LccA stability and activity. […] LccA was relatively stable in all solvents examined, retaining nearly 75% of its activity after 24 h incubation in methanol or ethanol and over 50% of its activity after incubation in DMSO or DMF. The influence of water-miscible cosolvents on enzyme activity and stability has been examined for several fungal laccases (Rodakiewicz-Nowak et al., 1999; Robles et al., 2002; Milstein et al., 1993; Luterek et al., 1998; Cantarella et al., 2003). These prior studies coupled with the current findings reveal a wide-variety of laccases, including LccA, are stable and/or can support catalysis and conversion of phenolic substrates in water-organic mixed solvents. Since most of the substrates and mediators of laccases are insoluble or poorly soluble in water and the degree of polymerization of phenoxyl radicals is higher in aqueous media (Milstein et al., 1993), solvent stability is an important feature to consider in optimizing this group of enzymes.

[2] = Thermostability of LccA, residual SGZ oxidizing activity after pre-incubation; type: physicochemical
Protocol: as §1
LccA was fully active after 1 h at 55° C. and 5 h at 50° C., with a half-live of inactivation at 50° C. of 31.5 h (FIG. 6D). […] (Fernandes et al., 2007). Likewise, the recently studied recombinant RL 5 laccase from rumen metagenome has maximal activity at 60° C. and is fully stable at this temperature for 200 min (Beloqui et al., 2006). […] (Martins et al., 2002).

[3] = Laccase activity assay, oxidation of DMP with copper sulfate; type: biochemical; details: US02-purified LccA, standard conditions, CuSO4 added
[4] = Laccase activity assay, oxidation of SGZ (syringaldazine); details: for Km: read-out: Km, SGZ
Protocol: LccA (51 μg·ml^−1) activity was assayed at different temperatures (22° to 70° C.) in T buffer with 185 mM NaCl using SGZ (1 mM) as the substrate. […] LccA activity was assayed with SGZ (●) from pH 6 to 11 and with ABTS (◯) from pH 3 to 8 at 45° C. using following buffers: 100 mM sodium acetate for pH 3 to 6, 25 mM Tris-HCl for pH 7 to 10, and 25 mM glycine-NaOH for pH 11. Activity is expressed as percent relative to oxidation of ABTS at pH 6. […] Purified enzyme (50.6 μg·ml^−1) was pre-incubated in T buffer supplemented with 185 mM NaCl at temperatures from 37° to 70° C. for up to 60 h, as indicated. […] Activity is presented as percent relative to incubation on ice (37° C. (●), 45° C. (▪), 50° C. (▴), 55° C. (♦), 60° C. (◯), 65° C. (□) and 70° C. (Δ)); FIG. 6E-Salt tolerance of LccA protein. Purified enzyme (16.5 μg·ml^−1) was pre-incubated for 30 min in T buffer at pH 8.4 supplemented with different concentrations of NaCl (0 to 1.4 M) as indicated. Samples were diluted to a final concentration 4.12 μg·ml^−1 protein and 185 mM NaCl in T buffer and assayed for SGZ oxidizing activity under standard conditions. Residual activity was calculated as percent relative to incubation at 185 mM NaCl. […] Enzyme (7.5 μg·ml^−1) was incubated in T buffer with 185 mM NaCl in the presence and absence of 25% (v/v) solvent (DMSO, DMF, ethanol and methanol) at room temperature for 90 min (white bar), 3 h (grey bar) and 24 h (black bar). […] Activity is calculated as percent relative to incubation without solvent.
Enzyme activity was determined by change in absorbance, in triplicate, by UV/Visible-spectroscopy using a BioTek Synergy HT multi-detection microplate reader with a 96-well plate. Oxidation of substrate was monitored by absorbance increase (ABTS at 420 nm with ε=36,000 M^−1 cm^−1; SGZ at 526 nm with ε=65,000 M^−1 cm^−1; DMP at 468 nm with ε=49,000 M^−1 cm^−1; guaiacol at 436 nm with ε=26,600 M^−1 cm^−1; ferrous ammonium sulfate at 315 nm with ε=2,200 M^−1 cm^−1) or decrease (bilirubin at 440 nm with ε=56,300 M^−1 cm^−1). Standard assay conditions were 185 mM NaCl at 45° C. with the following buffers and substrate concentrations: 100 mM sodium acetate buffer at pH 6.0 for ABTS (at 5 mM), DMP (at 2 mM) and guaiacol (at 5 mM); 25 mM Tris-HCl buffer at pH 8.4 for SGZ (at 1 mM); and 200 mM Tris-HCl buffer at pH 8.4 for bilirubin (0.45 mM). Copper sulfate (1 mM) was included for assay of DMP oxidation. Oxidation of ferrous ammonium sulphate (1 mM) was monitored at 315 nm (ε=2,200 M^−1 cm^−1) with and without salt (185 mM NaCl) in 100 mM MES (morpholineethanesulfonic acid) buffer at pH 5 as well as 25 mM Tris-HCl buffer at pH 7.0 and 8.4. One unit of enzyme activity is defined as the amount of enzyme that oxidizes 1 μmol of substrate per min at standard conditions. […] Kinetic parameters (Km, Vmax, and kcat) were determined using the Michaelis-Menten equation. […] All assays and protein purifications were performed at least in triplicate.
To further evaluate the catalytic properties of LccA, the temperature, pH and salt optima of the purified enzyme were determined using SGZ and/or ABTS as substrates.

[5] = Oxidation of ferrous ammonium sulfate; type: biochemical; details: presence or absence of copper supplementation
[6] = Oxidation of guaiacol; type: biochemical; details: presence or absence of copper supplementation
[7] = Salt tolerance of LccA, residual SGZ oxidizing activity after pre-incubation in NaCl; type: physicochemical; details: 100 mM to at least 1.4 M NaCl, FIG. 6E
[8] = Oxidation of bilirubin; type: biochemical; details: US02-purified LccA
[9] = Laccase activity assay, oxidation of ABTS; type: biochemical
Source text: as §1

[10] = Delignification of steam exploded sugarcane bagasse, total phenol by Folin-Ciocalteau
Protocol: Prior to enzymatic treatment, sugarcane bagasse was treated with 1% (v/v) phosphoric acid and steam exploded in a shotgun reactor at 190° C. for 10 min. The resultant bagasse was adjusted to pH 8.4 with 5M NaOH.
Stream exploded bagasse was delignified using the laccase, LccA, from H. volcanii US02. LccA was prepared for the delignification reaction by concentrating H. volcanii US02 culture supernatant 5-fold with ethanol precipitation and dialyzing the concentrate against 25 mM Tris buffer pH 8.4 supplemented with 200 mM NaCl (T buffer) with regenerated cellulose dialysis tubing (3500 Da molecular weight cut off; Thermo Scientific SnakeSkin Pleated Dialysis Tubing).
Bagasse samples were treated with LccA in a rotary shaker at 150 rpm with similar doses of heat killed LccA enzyme (HKE) as a control. Periodically clear supernatant obtained by centrifugation of small fraction of hydrolysate was used for total phenol estimation by Folin-Ciocalteau method (Singleton and Rossi, 1965). Optimal conditions were determined to be treatment with 3 Uml^1 LccA at 37° C. in T buffer at pH 8.4 for 3-6 h.

[11] = LccA from culture broth of Hfx. volcanii BS01
[12] = LccA from culture broth of Hfx. volcanii US02

B1: LccA: Haloferax volcanii laccase of the multicopper oxidase family, SEQ ID NO: 2, secreted glycoprotein purified from culture broth of strain US02 (protein, listed as Haloferax volcanii)
chain: MTDWSRRRFLQTGAALGIAGTLPQTTTEVSAASPTLEKFVQPLPIPSVREPDGQRDGADAYEIAVTEFTQQLHPDLPETTVWGFDGSYPGPTIEADAGSPVHVRFDNSGLPSEHLFPVDDRLGGTTAENHPGYDGPVPEVRTVTHFHGLELDPANDGQSDMWTSPGGVEGPRFDSAWQELPMEQGRTTSTYHDHTLGITRLNAYAGLLGLYSITTDAERELGLPSGDYDIPLLLQDKEFNDDGSLHYPEEFVSAFLGDTAVVNGAVWPYVEVEPRRYRFRILNGANHRSFDLQLESESGSGVPTMYQFAPGHGFLESVVPIGPNGDLDSLLLTPFERGELVVDFSDHAGETLTLANGADMGPELTDLVEFRVSDPSTPPEDASADPTSLSLPTPASYDESDARVTREMTLGTEVRNGLITHTLNGHVFGDEDAPVYPQLGATEIWELQNESGGRHPIHLHLVTFRVIGRGPDGTQPPDPNELGPKDTVRVDPGERVRILVTFEGYTGQFPWHCHMLEHEDNKMMIPFVVENPVADYANEENVVDATGLTDAVGDWRNETLETEVLLEVIDQWRSGDEVA
modifications: glycosylated
Q: For B1, which “Activity retained after incubation in solvent” value ([1]; 25% (v/v) DMSO or DMF) is on record?
A: The value was “over 50%”.

Q: And the “Activity retained after incubation in solvent” value ([1]; 24 h, 25% (v/v) methanol or ethanol)?
A: Its value is about 75%.

Q: And the “Activity retained after incubation” value ([2]; 37° C., 2½ days)?
A: Its value is “nearly all of its original activity”.

Q: And the Activity after pre-incubation ([2]; 1 h at 55° C.)?
A: Its Activity after pre-incubation is “fully active”.

Q: What about the Activity after pre-incubation ([2]; 5 h at 50° C.) of the same molecule?
A: The Activity after pre-incubation was “fully active”.

Q: And the “Specific activity, DMP oxidation” value [3]?
A: The value was 12.6±1.1 U·mg^−1.

Q: What about the “pH optimum, SGZ oxidization” value ([4]; 45° C., FIG. 6C) of the same molecule?
A: The value was 8.4.

Q: What about the “Activity relative to temperature optimum” value ([4]; 55° C.) of the same molecule?
A: Its value is 67%.

Q: And the “Activity relative to temperature optimum” value ([4]; 60° C.)?
A: Its value is 48%.

Q: And the “Activity relative to temperature optimum” value ([4]; 65° C.)?
A: The value was 35%.

Q: What about the “Activity relative to temperature optimum” value ([4]; 70° C.) of the same molecule?
A: The value was 15%.

Q: And the “kcat, SGZ” value [4, 11]?
A: Its value is 19.4 s⁻¹.

Q: What about the “kcat, SGZ” value [4, 12] of the same molecule?
A: Its value is 21.7 s⁻¹.

Q: What about the “Specific activity, SGZ oxidation” value ([4]; LccA purified from H. volcanii US02, fraction F2 (upper fraction), MonoQ 10/10) of the same molecule?
A: Its value is “F2, 6.7 U · mg^−1”.

Q: And the “Salt concentration for optimal activity” value ([4]; NaCl or KCl in T buffer at 45° C., FIG. 6B)?
A: The value was about 200 mM.

Q: What about the “Activity in KCl higher than in NaCl” value ([4]; at ~200 mM salt) of the same molecule?
A: The value was 1.5 fold.

Q: And the “Specific activity, SGZ oxidation” value ([4]; improved purification protocol from H. volcanii US02, MonoQ 10/10 pH 8.4)?
A: The value was 51.5 U·mg^−1.

Q: What about the “Specific activity, SGZ oxidation” value ([4]; purified from culture broth of Hfx. volcanii SB01 (C-terminal StrepII tag), final MonoQ 10/10 pH 8.4) of the same molecule?
A: Its value is 1.3 U·mg^−1 and 1.34 U·mg^−1.

Q: And the Km [4, 11]?
A: Its Km is 67 µM.

Q: What about the Km [4, 12] of the same molecule?
A: The Km was 35 µM.

Q: What about the “Activity relative to temperature optimum” value ([4]; room temperature (25° C.)) of the same molecule?
A: The value was about 75%.

Q: What about the “Oxidation of Fe^2+ (ferrous ammonium sulphate)” value [5] of the same molecule?
A: The value was “did not oxidize”.

Q: What about the Oxidation of guaiacol [6] of the same molecule?
A: The Oxidation of guaiacol was “did not oxidize”.

Q: And the “Activity retained after incubation in NaCl” value [7]?
A: The value was “nearly all of its original activity”.

Q: And the Km [8]?
A: Its Km is 236 µM.

Q: And the “kcat, bilirubin” value [8]?
A: The value was 29 s⁻¹.

Q: And the “Specific activity, bilirubin oxidation” value ([8]; standard conditions)?
A: The value was 25.5±1 U·mg^−1.

Q: And the “pH optimum, ABTS oxidation” value ([9]; 45° C., FIG. 6C)?
A: Its value is 6.0.

Q: What about the Km [9, 11] of the same molecule?
A: The Km was 700 µM.

Q: And the “kcat, ABTS” value [9, 11]?
A: Its value is 10.0 s⁻¹.

Q: And the Km [9, 12]?
A: The Km was 671 µM.

Q: And the “kcat, ABTS” value [9, 12]?
A: Its value is 9.9 s⁻¹.

Q: What about the “Specific activity, ABTS oxidation” value ([9]; US02-purified LccA, standard conditions) of the same molecule?
A: The value was 6.1±0.39 U·mg^−1.

Q: And the “Phenol content after treatment” value ([10]; 3 h of treatment, from 1473±10 before)?
A: Its value is 1160±26 mg phenol per liter.

Q: What about the “Reduction in the phenol content” value ([10]; 3 h of treatment, ~1 g dry weight bagasse in 15 ml T buffer) of the same molecule?
A: The value was 21%.

Q: And the “Reduction in the phenol content” value ([10]; bagasse (~1 g dry weight equivalents) in 50 ml of T buffer)?
A: Its value is 38-43%.

From US8414660B2, “Haloferax volcanii laccase and variants and fragments thereof” (University of Florida Research Foundation, Inc., priority 2009, dated 2013)
